{
  "source": "paper PMC5861054",
  "about": "“Crystal structure of an intramembranal phosphatase central to bacterial cell-wall peptidoglycan biosynthesis and lipid recycling” (Nature Communications, 2018)",
  "proteins": {"B1": {"name": "Undecaprenyl pyrophosphate phosphatase (UppP) from Escherichia coli (enzyme, Escherichia coli K-12, UniProt P60932 1-273, looked up)", "chain": "MSDMHSLLIAAILGVVEGLTEFLPVSSTGHMIIVGHLLGFEGDTAKTFEVVIQLGSILAVVVMFWRRLFGLIGIHFGRPLQHEGESKGRLTLIHILLGMIPAVVLGLLFHDTIKSLFNPINVMYALVVGGLLLIAAECLKPKEPRAPGLDDMTYRQAFMIGCFQCLALWPGFSRSGATISGGMLMGVSRYAASEFSFLLAVPMMMGATALDLYKSWGFLTSGDIPMFAVGFITAFVVALIAIKTFLQLIKRISFIPFAIYRFIVAAAVYVVFF", "notes": "Undecaprenyl pyrophosphate phosphatase (UppP, BacA), Escherichia coli K-12 (ATCC 10798), full length, residues 1-273; Integral membrane protein, in DDM detergent (SEC, cross-linking) or monoolein lipid cubic/sponge phase (crystals); also called EcUppP; BacA; source: E. coli C41, solubilized from membranes in DDM, purified (Ni-NTA, thrombin cleavage, gel filtration); not shown: His6, N-terminal, …"}},
  "molecular_target": "the molecule itself",
  "assay": "cross-linking; purified UppP, room temperature 30 min, 50-fold molar excess DSS or EGS, quenched with 50 mM Tris, 12% SDS-PAGE",
  "data": [
    {"protein": "B1", "values": [
      {"measurement": "stoichiometry N", "result": 2}
    ]}
  ]
}
